Experimental findings from IntAct's records for PubMed 11781573 are described below.

First the molecules themselves.
B1: Erythropoietin receptor (Homo sapiens), P19235 (parent)
chain: MDHLGASLWPQVGSLCLLLAGAAWAPPPNLPDPKFESKAALLAARGPEELLCFTERLEDLVCFWEEAASAGVGPGNYSFSYQLEDEPWKLCRLHQAPTARGAVRFWCSLPTADTSSFVPLELRVTAASGAPRYHRVIHINEVVLLDAPVGLVARLADESGHVVLRWLPPPETPMTSHIRYEVDVSAGNGAGSVQRVEILEGRTECVLSNLRGRTRYTFAVRARMAEPSFGGFWSAWSEPVSLLTPSDLDPLILTLSLILVVILVLLTVLALLSHRRALKQKIWPGIPSPESEFEGLFTTHKGNFQLWLYQNDGCLWWSPCTPFTEDPPASLEVLSERCWGTMQAVEPGTDDEGPLLEPVGSEHAQDTYLVLDKWLLPRNPPSEDLPGPGGSVDIVAMDEGSEASSCSSALASKPSPEGASAASFEYTILDPSSQLLRPWTLCPELPPTPPHLKYLYLVVSDSGISTDYSSGDSQGAQGGLSDGPYSNPYENSLIPAAEPLPPSYVACS
partner: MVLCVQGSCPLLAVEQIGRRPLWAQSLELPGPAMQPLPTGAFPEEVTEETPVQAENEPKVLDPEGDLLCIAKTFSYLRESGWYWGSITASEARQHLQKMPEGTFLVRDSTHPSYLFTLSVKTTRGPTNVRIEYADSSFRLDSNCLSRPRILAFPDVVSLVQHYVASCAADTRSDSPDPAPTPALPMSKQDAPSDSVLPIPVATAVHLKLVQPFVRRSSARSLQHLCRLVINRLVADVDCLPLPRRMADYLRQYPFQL
B2: Erythropoietin receptor (Homo sapiens), P19235 (parent)
chain: B1 chain

The variants in one test derive from B1. The following applies: with cish_mouse Cish.
Turning to Y426F, the “effect of a mutation on the interaction” value was “decreasing interaction”.

In a further test the parent is B2. The following applies: with socs2_human SOCS2, O14508.
socs2_human SOCS2, O14508, sequence (O14508 whole entry): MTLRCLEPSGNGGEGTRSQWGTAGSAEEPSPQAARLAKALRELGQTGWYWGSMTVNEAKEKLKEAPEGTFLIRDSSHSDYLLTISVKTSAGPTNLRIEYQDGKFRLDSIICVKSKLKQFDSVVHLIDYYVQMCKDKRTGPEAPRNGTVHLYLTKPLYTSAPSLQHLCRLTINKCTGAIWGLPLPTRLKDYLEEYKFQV
In the case of Y426F, the “effect of a mutation on the interaction” value was “decreasing interaction”.
